{
  "source": "patent US12018084B2",
  "about": "“Anti-CXCR2 antibodies and uses thereof” (Cephalon LLC, priority 2018, dated 2024)",
  "molecules": {"B1": {"name": "CXCL7: human agonist chemokine, R&D Systems 393-NP (protein)", "chain": "AELRCMCIKTTSGIHPKNIQSLEVIGKGTHCNQVEVIATLKDGRKICLDPDAPRIKKIVQKKLAGDESAD"}, "B2": {"name": "BKO-5E8: VH SEQ ID NO: 21, VL SEQ ID NO: 22 (antibody, V domains shown)", "VH": "EVQLLESGGGLVQPGGSLRLSCAASGFTFSSYAMSWVRQAPGRGLEWVSAIRGSGAGTYYADSMKGRFTISRDNSKDTLYLLMNSLRAEDTAVYYCSKLEAVSGTGKYFQHWGQGTLVTVSS", "VL": "SYELTQPPSVSVSPGQTANITCSGDTLGDKFACWYQQKPGQSPVLVIYQDTKRPSGIPERFSGSKSGITATLTISGTQAMDEADFYCQAWNSRGVVFGGGTRLTVL", "modifications": "BKO_5E8_H5_C05_VH; BKO_5E8_L3_C03_VL"}, "B3": {"name": "BKO-7C11: VH SEQ ID NO: 31, VL SEQ ID NO: 32 (antibody, V domains shown)", "VH": "QVQLQQWGAGLLKPSETLSLTCAVYGGSFSGYYWSWIRQPPGKGLEWIGEINHSRNTNYNPSLKSRVTISVDTSKNQFSLKLSSVTAADTAVYYCARGEVRGVFTLYWYFDVWGRGTLVTVSS", "VL": "SSELTQGPAVSVALGQTVRITCQGNSLRFYYASWYQQRPGQAPILVIYDKNNRPSGIPDRFSGSSSGNTASLTITGAQAEDEADYYCNSRDSSGYYMIFGGGTKLTVL", "modifications": "BKO_7C11_H6_B06_VH; BKO_7C11_G01_VL"}, "B4": {"name": "BKO-5G11: VH SEQ ID NO: 23, VL SEQ ID NO: 24 (antibody, V domains shown)", "VH": "EVQLLESGGGLVQPGGSLRLSCAVSGFTFSNYAMTWVRQAPGKGLEWVSAISGRGSRTYYADSVKGRFTISRDTSKNTLYLQMNSLRAEDTAVYYCAKMDYWGQGTLVTVSS", "VL": "QSALTQPPSASGSPGQSVTISCTGTSSDVGGYNYVSWYQQHPGKAPKLMIFEVSKRPSGVPDRFSGSKSGNTASLTVSGLQAEDEADYYCSSYAGSNNFGVFGGGTKLTVL", "modifications": "BKO_5G11_VH; BKO_5G11_VL"}, "B5": {"name": "BKO-8B6: VH SEQ ID NO: 37, VL SEQ ID NO: 38 (antibody, V domains shown)", "VH": "EVQLLESGGGLVQPGGSLRLSCAASGFTFSSNAMSWVRQAPGKGLEWVSAISNSGRSTYYADSVKGRFTISRDSSKNTLYLLMNSLRAEDSAVYYCAIKLGYWGQGSLVTVSS", "VL": "B4 VL with I50M, F51Y, N97D, K107R", "modifications": "BKO_8B6_VH; BKO_8B6_VL"}, "B6": {"name": "BKO-8C4: VH SEQ ID NO: 39, VL SEQ ID NO: 40 (antibody, V domains shown)", "VH": "QLQLQESGPGLVKPSETLSLTCTVSGGSIRTSSYYWGWIRQPPGKGLEYIGSIYYSGTTYYNPSLKSRVTMSVDTSKNQFSLKLSSVTAADTAVYYCARHGRVREVPPFDYWGQGTLVTVSS", "VL": "SSELTQDPAVSVALGQTVRITCQGDSLRYYYASWYQQKPGQAPVLVIYDENSRPSGIPDRFSGSSSGNTASLRITGTQAEDEADYYCNSRDTSGNHWAFGGGTKLTVL", "modifications": "BKO_8C4_VH; BKO_8C4_VL"}, "B7": {"name": "BKO-1A1: VH SEQ ID NO: 1, VL SEQ ID NO: 2 (antibody, V domains shown)", "VH": "B6 VH with L84M, T92S", "VL": "B6 VL with R73S", "modifications": "BKO_1A1_VH; BKO_1A1_VL"}, "B8": {"name": "102c: VH SEQ ID NO: 162, VL SEQ ID NO: 110 (antibody, V domains shown)", "VH": "EVQLLESGGGLVQPGGSLRLSCAASGFTFSSSTQSWVRQPPGKGLEWVSAISGRGRSTYYADSVKGRFTISRDNSKNTLYLQMNSLRAEDTAVYYCAIQEGYWGQGILVTVSS", "VL": "B4 VL with T23I, F51Y", "modifications": "4A8 VH Variant 102 M34Q_A40P_N56S_R75K_M96E; 4A8 VL variant c D41G_N52S_N94S"}, "B9": {"name": "106c: VH SEQ ID NO: 166, VL SEQ ID NO: 110 (antibody, V domains shown)", "VH": "B8 VH with R54S, R56G", "VL": "B4 VL with T23I, F51Y", "modifications": "4A8 VH Variant 106 M34Q_A40P_R53S_R55G_N56S_ R75K_M96E; 4A8 VL variant c D41G_N52S_N94S"}},
  "note": "Where a chain is given by its changes, count along the chain named.",
  "data": [
    {"biological_target": "T1, Human CXCR2 (Homo sapiens, UniProt P25025)", "T1 sequence (P25025 1-360)": "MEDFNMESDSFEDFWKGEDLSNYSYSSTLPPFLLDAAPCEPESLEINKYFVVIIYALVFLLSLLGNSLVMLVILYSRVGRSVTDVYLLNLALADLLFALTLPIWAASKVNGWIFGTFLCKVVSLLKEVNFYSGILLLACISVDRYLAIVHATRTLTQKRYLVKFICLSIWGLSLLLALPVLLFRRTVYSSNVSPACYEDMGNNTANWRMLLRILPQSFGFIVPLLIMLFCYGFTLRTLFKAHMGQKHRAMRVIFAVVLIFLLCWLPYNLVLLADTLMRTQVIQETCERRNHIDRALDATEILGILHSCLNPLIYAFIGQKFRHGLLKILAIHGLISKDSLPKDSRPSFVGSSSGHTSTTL", "experiment": "Tango CXCR2-bla U2OS cell-based β-arrestin recruitment assay", "design": "The beta-arrestin/TEV protease fusion and the beta-lactamase reporter are separate parts of the cell line", "conditions": "human agonist potency", "from_the_text": "Cells were thawed, propagated, cultured and frozen according to the manufacturer's directions.\nPreparation of Tango™ CXCR2-bla U2OS cells for use in cell-based assays: The manufacturer's protocol was altered to make use of 96-well plates instead of 384-well plates. Briefly, dividing cells were harvested one day prior to use. Cells were harvested and resuspended in assay medium (100% FreeStyle™ Expression Medium; Life Technologies; Cat #12338-018) at a viable cell density of 312,500 cells/mL. 128 μL of cell suspension was added per well in 96-well black-walled, clear bottom tissue culture-treated plates. Cells were incubated for 16-20 hrs at 37° C. in an atmosphere of 5% CO2 prior to use in assays.\nTango™ assay procedure: Assays were set up and run as described in the manufacturer's protocol. For antagonist assays, agonists were used at concentrations in the EC50-EC80 range. Assays were read using a FlexStation® 3 (Molecular Devices) fluorescence plate reader configured with the parameters given in Table 4. The blue/green emission ratio for each well was calculated by dividing the blue emission values by the green emission values. All inhibition curves were fitted using a four-parameter dose-response using GraphPad Prism™ (Version 7.01).\nThe Human CXCR2 Tango™ cell line was used to assess the ability of antibody BKO-4A8-101c to inhibit β-arrestin recruitment to agonist-activated CXCR2. All human ELR+ chemokine CXCR2 ligands were tested in antagonist dose response assays using calculated EC50 values of agonist.\nThe commercially available reporter cell line Tango™ CXCR2-bla U2OS (ThermoFisher Scientific) was used to assess the ability of the anti-CXCR2 antibodies to inhibit β-arrestin recruitment to agonist-activated CXCR2. Agonists were provided at their assay EC50 concentration for antagonist assays.", "units": {"EC50": "nM"}, "values": [
      {"molecule": "B1", "EC50": 39.6}
    ]},
    {"biological_target": "T2, Murine CXCR2 (Mus musculus, UniProt P35343)", "T2 construct": "expressed in transfected cells", "T2 sequence (P35343 1-359)": "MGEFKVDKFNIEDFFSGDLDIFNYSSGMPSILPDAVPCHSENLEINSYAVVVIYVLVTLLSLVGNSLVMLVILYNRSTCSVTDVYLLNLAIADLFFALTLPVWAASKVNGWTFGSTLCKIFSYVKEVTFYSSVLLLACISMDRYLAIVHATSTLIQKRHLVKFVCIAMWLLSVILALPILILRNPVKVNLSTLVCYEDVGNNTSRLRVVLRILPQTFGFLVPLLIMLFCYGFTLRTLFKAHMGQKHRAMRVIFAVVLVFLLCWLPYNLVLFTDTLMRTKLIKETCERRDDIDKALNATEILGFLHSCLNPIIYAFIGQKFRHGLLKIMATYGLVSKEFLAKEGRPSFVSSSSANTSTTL", "experiment": "cELISA of hybridoma supernatants on cells transfected with murine CXCR2", "format": "binding", "conditions": "hybridoma supernatant; fluorescence units relative to positive control (100%)", "units": {"Murine CXCR2 % Positive": "%"}, "values": [
      {"molecule": "B2", "Murine CXCR2 % Positive": 8},
      {"molecule": "B3", "Murine CXCR2 % Positive": 4},
      {"molecule": "B4", "Murine CXCR2 % Positive": 22},
      {"molecule": "B5", "Murine CXCR2 % Positive": 6},
      {"molecule": "B6", "Murine CXCR2 % Positive": 6},
      {"molecule": "B7", "Murine CXCR2 % Positive": 6}
    ]},
    {"biological_target": "T1, Human CXCR2", "experiment": "Calcium flux assay, HTS002C-CHEMISCREEN human CXCR2 calcium-optimized cell line", "format": "cell-based", "conditions": "human agonist potency", "description": "One of the signaling pathways downstream of CXCR2 activation that has a role in cell chemotaxis is characterized by calcium mobilization (flux). The ability of BKO-4A8-101c to inhibit human CXCR2 ligand-induced calcium flux was tested in the commercially available HTS002C-CHEMISCREEN™ human CXCR2 chemokine receptor calcium-optimized cell line.\nThe Fluo-4 NW calcium assay kit (Life Technologies) was used according to manufacturer's protocol for in-cell measurement of calcium mobilization, which was read using a FLIPR Tetra high-throughput cellular screening system (Molecular Devices). The peak response minus the basal response from each well was used to determine inhibition dose response curves fitting a four-parameter logistic equation and IC50 values.", "units": {"EC50": "nM"}, "values": [
      {"molecule": "B1", "EC50": 7.14}
    ]},
    {"biological_target": "T1, Human CXCR2", "experiment": "Flow cytometry binding assay, Expi293F cells transiently transfected with human CXCR2", "design": "host or cells: Expi293F cells, vector pTT5", "conditions": "combinatorial variants with light chain c", "description": "For each 10 mL transfection, lipid-DNA complexes were prepared by diluting 10 μg of plasmid DNA in Opti-MEM™ I Reduced Serum Medium (Cat. no. 31985-062) to a total volume of 1.0 mL. 54 μL of ExpiFectamine™ 293 Reagent was diluted in Opti-MEM™ I medium to a total volume of 1.0 mL. Transfections were carried out according to manufacturer's instructions. The cells were incubated in a 37° C. incubator with a humidified atmosphere of 8% CO2 in air on an orbital shaker rotating at 200 rpm. Approximately 18-24 hours post-transfection, the cell viability was evaluated and transfected cells harvested for use.\nHarvested cells were resuspended in FACS buffer (1×PBS+0.5% (w/v) bovine serum albumin (BSA)+2 mM EDTA pH 7.2). Approximately 2×10^5 cells were added per well in a 96-well round-bottomed plate. Cells were pelleted by centrifugation at 400 g for 5 mins at 4° C. and supernatants discarded. 25 μL of each test antibody or control antibody was added to the cells and incubated for 30 minutes at 4° C. Cells were washed twice in 100 μL FACS buffer followed by centrifugation at 400 g for 5 mins at 4° C.\nFor detection, 50 μL of secondary antibody (Table 2) was added to relevant samples. Commercially available antibodies that bound to transfected CXCR family members were used as positive controls to ensure that the cells were expressing the receptors. Cells were washed twice in 200 μL of FACS buffer followed by centrifugation at 400 g for 5 mins at 4° C. Before sample acquisition, cells were resuspended in 100 μL of FACS buffer. Samples were acquired using the high throughput sampler on a FACSCanto™ II cytometer (Beckton-Dickinson).\nBinding of BKO-4A8 and variants thereof was detected by incubation of fluorochrome-conjugate anti-human IgG light chain lambda antibody. The binding activity of antibodies tested, quantified as mean fluorescent intensity, was independent of the antibody Fc region as illustrated in FIG. 9.", "values": [
      {"molecule": "B8", "CXCR2 binding activity versus parental BKO-4A8": "reduced"},
      {"molecule": "B9", "CXCR2 binding activity versus parental BKO-4A8": "reduced"}
    ]},
    {"biological_target": "T1, Human CXCR2", "experiment": "cELISA of hybridoma supernatants on cells transfected with human CXCR2", "format": "binding", "design": "host or cells: Expi293F cells, vector pTT5", "conditions": "hybridoma supernatant; fluorescence units relative to positive control (100%)", "description": "To generate hybridomas which produced monoclonal antibodies to human CXCR2, splenocytes and/or lymph node cells from animals with the highest anti-CXCR2 titres were isolated and fused to mouse myeloma cells (ATCC, CRL-1580). Cells were plated at approximately 1×10^5 cells/mL in flat bottom microtiter plates, followed by a two week incubation in selective medium (10% FCS and 1×HAT (Sigma)). Hybridomas were expanded by serial passage through four media changes in 96-well plates (96-well stages 1 to 4), then, where required, expanded into T25 and T75 flasks. […] Bound antibodies were detected using a goat anti-rat IgG-HRP (Southern Biotech, #3030-05) secondary antibody.\nA panel of hybridomas was generated using lymph nodes and spleen cells from the transgenic rats engineered to express human variable region sequences. A cellular ELISA (cELISA) was used to detect human CXCR2 binding activity in supernatants taken during the expansion process for the hybridomas (Table 5). Hybridomas that retained expression of antibodies that bound CXCR2 after several passages were selected for DNA sequencing.", "units": {"Human CXCR2 % Positive": "%"}, "values": [
      {"molecule": "B2", "Human CXCR2 % Positive": 109},
      {"molecule": "B3", "Human CXCR2 % Positive": 73},
      {"molecule": "B4", "Human CXCR2 % Positive": 101},
      {"molecule": "B5", "Human CXCR2 % Positive": 95},
      {"molecule": "B6", "Human CXCR2 % Positive": 124},
      {"molecule": "B7", "Human CXCR2 % Positive": 38}
    ]}
  ]
}
